B1: Tpm1.1_(64–154)I92T (domain or fragment)
chain: not shown
modifications: oxidized Cys residues (disulfide between the N-terminal Cys of the two chains)
notes: tropomyosin Tpm1.1 (human, TPM1), residues 64-154 with the cardiomyopathy mutation I92T; source: His-tag removed with thrombin; not shown: His-tag, N-terminal, cleaved
B2: Tpm1.1_(64–154)V95A (domain or fragment)
chain: not shown
modifications: oxidized Cys residues (disulfide between the N-terminal Cys of the two chains)
notes: tropomyosin Tpm1.1 (human, TPM1), residues 64-154 with the cardiomyopathy mutation V95A; source: His-tag removed with thrombin; not shown: His-tag, N-terminal, cleaved
B3: Tpm3.12_(65–155)R91C (domain or fragment)
chain: not shown
modifications: oxidized Cys residues (disulfide between the N-terminal Cys of the two chains)
notes: tropomyosin Tpm3.12 (human, TPM3), residues 65-155 with the congenital myopathy mutation R91C; source: His-tag removed with thrombin; not shown: His-tag, N-terminal, cleaved
B4: Tpm3.12_(65–155)R91P (domain or fragment)
chain: not shown
modifications: oxidized Cys residues (disulfide between the N-terminal Cys of the two chains)
notes: tropomyosin Tpm3.12 (human, TPM3), residues 65-155 with the congenital myopathy mutation R91P; source: His-tag removed with thrombin; not shown: His-tag, N-terminal, cleaved
B5: Tpm1.1_(64–154) (domain or fragment)
chain: not shown
modifications: disulfide bond between the Cys residues of the N-terminal fusion sequences of the two chains (non-reducing conditions)
notes: tropomyosin Tpm1.1 (human skeletal isoform, TPM1), residues Leu64 to Ile154; Cloned in pET15b between NdeI and BamHI; also called Tpm1.1 peptide; wild-type Tpm1.1_(64–154); source: His-tag removed with thrombin; not shown: His-tag, N-terminal, cleaved
B6: Tpm3.12_(65–155) (domain or fragment)
chain: not shown
modifications: disulfide bond between the Cys residues of the N-terminal fusion sequences of the two chains (non-reducing conditions)
notes: tropomyosin Tpm3.12 (human skeletal isoform, TPM3), residues 65-155, numbered as in full-length Tpm3.12; Cloned in pET15b between NdeI and BamHI; One sentence of the methods prints 65–165; also called Tpm3.12 peptide; wild-type Tpm3.12_(65–155); source: His-tag removed with thrombin; not shown: His-tag, N-terminal, cleaved

Target: the molecule itself
Experiment: mass spectrometry; molecular weights of the purified peptides compared with theoretical MWs calculated in Expasy; Liquid Chromatography and Mass Spectrometry Laboratory

Stoichiometry N, 2:
B1
B2
B3
B4

Target: the molecule itself
Experiment: cross-linking; disulfide cross-link through the N-terminal Cys, seen on SDS-polyacrylamide gel; Laemmli solution without β-mercaptoethanol, with or without 3 min at 100 °C

Stoichiometry N, 2:
B5
B6

Source: paper PMC8622905, “Structural Effects of Disease-Related Mutations in Actin-Binding Period 3 of Tropomyosin” (Molecules, 2021)
